Target: T1, CyaY, the frataxin homolog of Escherichia coli (E. coli), P27838
T1 chain: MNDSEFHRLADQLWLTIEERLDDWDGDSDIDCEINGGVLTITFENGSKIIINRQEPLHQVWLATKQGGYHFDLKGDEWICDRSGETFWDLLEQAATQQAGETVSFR
Test: native MS; CyaY above 35 uM in the titration of SufSE; charge states of CyaY multimers (Fig. S4)
Conditions: remark: other sources report otherwise

B1: CyaY, the frataxin homolog of Escherichia coli, P27838 1-106 (natural protein)
chain: MNDSEFHRLADQLWLTIEERLDDWDGDSDIDCEINGGVLTITFENGSKIIINRQEPLHQVWLATKQGGYHFDLKGDEWICDRSGETFWDLLEQAATQQAGETVSFR
For B1, the stoichiometry N was 2 to 3.
